Laboratory results as given in patent publication US20240026019A1 (Innovent, published 2024).
Residue numbers refer to the chain shown, from its start.

T1: rh-TNFR2-His (recombinant human TNFR2, His tag) (human, UniProt P20333 23-257)
T1 construct: Soluble antigen of the ForteBio assay; not shown: His tag
T1 sequence (looked up): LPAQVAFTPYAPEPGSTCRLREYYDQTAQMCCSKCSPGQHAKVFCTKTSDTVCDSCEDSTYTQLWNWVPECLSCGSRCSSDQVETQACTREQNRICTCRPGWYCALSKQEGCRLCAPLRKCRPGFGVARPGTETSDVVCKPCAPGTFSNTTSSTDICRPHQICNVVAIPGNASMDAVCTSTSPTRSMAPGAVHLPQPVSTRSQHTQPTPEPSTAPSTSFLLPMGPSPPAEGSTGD

T2: hTNFR2 protein (coated on the microplate in the blocking ELISA) (human, UniProt P20333 23-257)
T2 construct: The construct coated in the ELISA is not described (it may or may not be the immunogen, Sino biological 10417-H03H)
T2 sequence (looked up): T1 sequence (looked up)

T3: CYNO-TNFR2-His (cynomolgus monkey TNFR2, His tag) (cynomolgus monkey, UniProt A0A2K5VET2 132-366)
T3 construct: Soluble antigen of the ForteBio assay; also called cTNFR2; not shown: His tag
T3 sequence: T1 sequence (looked up) with S16G, S36P, P117Q, N164H, E210A, S216G, M223V

B1: chimeric antibody 69B1 (antibody, human IgG1, kappa, V domains shown)
VH: QIQLVQSGPELKKPGETVKISCKASGYTFTDYSMNWVKQAPGKGLKWMGWLNTETGEPIYADDFKGRFVFSLETSASTAYLEINNLNDEDTATYFCAREAIYYGTSYVLDYWGQGTSVTVSS
VL: DIVLTQSPASLAVSLGQRATISCRASESVEYYGTNFMQWYQQKPGQPPKLLIYSASNVESGVPARFSGSGSGTDFSLNIHPVEEDDIAVYFCQQSRKDPSTFGEGTNLEIKR
B2: positive control antibody OPI (humanized antibody SBT-002e in WO 2017083525) (antibody, V domains shown)
VH: QVTLKESGPALVKPTQTLTLTCTFSGFSLSTSGMGVGWIRQPPGKALEWLAHIWWDDDKFYNPSLKSRLTISKDTSKNQVVLTMTNMDPVDTATYYCARLTGTRYFDYWGQGTTVTVSS
VL: DVQMTQSPSSLSASVGDRVTITCKASQDINKFIAWYQQKPGKAPKLLIHYTSTLQPGIPSRFSGSGSGRDYTFTISSLQPEDIATYYCLQYGNLWTFGGGTKVEIK
notes: also called Benchmark OPI
B3: chimeric antibody 3C4 (antibody, human IgG1, kappa, V domains shown)
VH: QVQLQQSGPELVKPGASVTISCKASDYSFTNYYIHWVKQRPGQGLEWIGWIYPGNVITKYHEKFKGKAILTADTSSTTAYMQLNSLTSEDSAVYFCARSRATGYFDYWGQGTTLTVSS
VL: DIQMTQTTSSLSASLGDRVTISCRASQDIRNYLNWFQQKPDGTIKLLIYYTSRLHSGVPSRFSGSGSGTDYSLTISNLEQEDMATYFCQQFNTLPWTFGGGTKLEIKR

biological target: T1, rh-TNFR2-His (recombinant human TNFR2, …); test: BLI (ForteBio), antibody on sensor, 100 nM rh-TNFR2-His in solution, 1:1 model
Experimental: (§1) In the present invention, the equilibrium dissociation constant (KD) for the binding of the 3 exemplary chimeric antibodies of the present invention described above to human TNFR2 (hTNFR2), cynomolgus monkey TNFR2 (cTNFR2), murine TNFR2(mTNFR2), and human TNFR1(hTNFR1) was determined by biological optical interferometry (ForteBio). For comparison, the equilibrium dissociation constant (KD) of a positive control antibody OPI (humanized antibody SBT-002e in WO 2017083525, VH sequence of SEQ ID NO: 58, VL sequence of SEQ ID NO: 59) was determined.
(§2) The ForteBio affinity assay was performed according to the prior art (Estep, P, et al., High throughput solution based measurement of antibody-antigen affinity and epitope binning. MAbs, 2013.5(2): p. 270-278). Briefly, a sensor was equilibrated offline in an assay buffer for 30 min, and was equilibrated online for 60 s to establish a baseline. The purified antibodies obtained as described above were loaded online onto an AHQ sensor (ForteBio) for the ForteBio affinity assay. The sensor with the loaded antibodies was then exposed to each of 100 nM hTNFR2, cTNFR2, mTNFR2, and hTNFR1 antigens for 5 min before transferring the sensor to an assay buffer for 5 min of dissociation for dissociation rate measurement. The kinetic analysis was performed using a 1:1 binding model.

Row | Kd [nM] | koff [s⁻¹] | kon [M⁻¹ s⁻¹] | Binder
1 | 0.265 | 0.000519 | 1.96e+06 | B1
2 | 4.18 | 0.000229 | 54800 | B2
3 | 1.36 | 0.00176 | 1.29e+06 | B3

biological target: T2, hTNFR2 protein (coated on the …); test: blocking ELISA: hTNFR2 coated on the plate, binding of biotinylated TNFα blocked by the antibody; the table row is headed EC50; unit taken from the axis log Conc nM
Experimental: The ability of the chimeric antibodies 3C4, 69B1, and 72G8 and the control antibody OPI to block the binding of human TNFα to hTNFR2 was assayed by ELISA.
The hTNFR2 protein was resuspended and dissolved to a concentration of 2 μg/mL with PBS, and a microplate was coated with the protein and incubated overnight. The plate was blocked with 5% BSA for 1 h, and a biotinylated antigen (Recombinant Biotinylated TNFα protein (ACRO)) was diluted to 2 μg/mL and added to the plate at 10 μL/well. The antibodies prepared as described above (3C4, 69B1, and 72G8) were each diluted in a gradient starting from the maximum concentration of 300 nM for a total of 8 or 12 dilution gradients. The diluted antibodies were added at 100 μL/well and incubated in PBS on ice for 30 min. The antigen-antibody mixture was incubated in a microplate for 90 min and washed three times with PBS, and the supernatant was discarded. 100 μL of Avidin-HRP (Invitrogen) diluted at a 1:5000 ratio was added to each well, incubated at room temperature for 30 min, and washed six times with PBS. A TMB chromogenic solution (solarbio) was added to the plate at 100 μL/well for color development for 1 min, and the reaction was stopped by adding a stop buffer (solarbio) at 100 μL/well. The plate was read on a microplate reader at OD₄₅₀ and OD₆₂₀.

Row | IC50 [nM] | Binder
4 | 2.15 | B1
5 | 4.56 | B2
6 | 3.11 | B3

biological target: T3, CYNO-TNFR2-His (cynomolgus monkey …); test: BLI (ForteBio), antibody on sensor, 100 nM CYNO-TNFR2-His in solution, 1:1 model
Experimental: as §1, §2

Row | Kd [nM] | koff [s⁻¹] | kon [M⁻¹ s⁻¹] | Binder
7 | 1.11 | 0.00198 | 1.79e+06 | B1
8 | 1.15 | 0.000328 | 284000 | B2
9 | 1.42 | 0.00201 | 1.41e+06 | B3
